Data from article PMC9964314.

Columns and labels:
[1] = molecular target: FITC tagged AAV Po1 capsid bipartite NLS peptide (residues 119-158) (porcine adeno-associated virus, strain Po1); assay: fluorescence polarisation
[2] = molecular target: FITC tagged AAV Po1 capsid monopartite NLS peptide (residues 143-165) (porcine adeno-associated virus, strain Po1); assay: fluorescence polarisation

Row | Substance | Kd [1] [nM] | Kd [2] [nM]
1 | Human importin α5 lacking the IBB domain (hImp5DIBB) (domain or fragment) | 0.14 | 144
2 | Human importin α7 lacking the IBB domain (hImpα7DIBB) (domain or fragment) | 0.29 | 294
3 | Human importin α3 lacking the IBB domain (hImpα3DIBB) (domain or fragment) | 0.0455 | 3480
4 | Human importin α1 lacking the IBB domain (hImpα1DIBB) (domain or fragment) | 0.382 | 556
